Data set [1] has as its system CsoR H61A (Mycobacterium tuberculosis). Nature of the data set: fluorescence anisotropy. The settings on record: pH 7.0, 0.2 M NaCl, 2 mM DTT, 25 °C (buffer not stated in the material). For orientation: Polarisation of emitted light reports the rotation of a fluorescent probe.
Data set [2] deals with the molecule itself.

In data set [1], cso operator DNA displayed a Ka (M-1 (A2 (so in the source); ≤)) of less than 1e+10.

B1: H61A Mycobacterium tuberculosis CsoR (natural protein)
chain: MSKELTAKKRAALNRLKTVRGHLDGIVRMLESDAYCVDVMKQISAVQSSLERANRVMLHNALETCFSTAVLDGHGQAAIEELIDAVKFTPALTGPHARLGGAAVGESATEEPMPDASNM
With B1, the “stoichiometry N” value in data set [2] came to 4.

A word on the stoichiometry N: it is a count of units in the complex or per binding partner.
